The record followed here is patent US20170253670A1 (Hoffmann-La Roche, published 2017).

Where “and” joins values, the source holds several entries; their conditions need not be identical. Identical values can stand only once.

The target in one assay is T1, Fc fused huTACI-R (human, UniProt O14836 2-166, limits assumed).
T1 construct: also called human TACI receptor
T1 sequence (looked up): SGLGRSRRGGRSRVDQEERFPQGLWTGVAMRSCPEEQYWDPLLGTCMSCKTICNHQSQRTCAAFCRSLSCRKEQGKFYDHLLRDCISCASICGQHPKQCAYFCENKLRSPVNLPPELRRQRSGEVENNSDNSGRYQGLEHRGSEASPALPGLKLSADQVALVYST
Briefly: SPR (Biacore T200), Fc fused huTACI-R on CM5 chip, IgG as analyte, reference-subtracted. A general note: In SPR one partner is held on a chip, and binding of the other changes the refractive index at the surface.

Assay [1] addresses T2, recombinant murine BCMA Fc(kih) (murine, UniProt O88472 2-49, biotinylated at the avi-tag of the Fc knob chain (not in the letters)).
T2 construct: also called muBCMA Fc(kih); not shown: human IgG1 hinge-Fc(knob)-avi and the unfused Fc(hole) chain
T2 chain: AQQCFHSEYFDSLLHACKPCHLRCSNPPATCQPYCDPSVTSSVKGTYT
In words: SPR Biacore, binder captured via anti-Fab, BCMA-Fc analyte.

Assay [2] addresses T3, recombinant human BCMA Fc(kih) (human, UniProt Q02223 4-53, biotin on avi-tag where coupled to SA chip ; biotin on the avi-tag of the Fc-knob chain where coupled to the SA chip (tag not in the letters)).
T3 construct: also called huBCMA Fc(kih); huBCMA; not shown: human IgG1 hinge-Fc(knob)-avi fused to the ECD, and the unfused Fc(hole) chain
T3 chain: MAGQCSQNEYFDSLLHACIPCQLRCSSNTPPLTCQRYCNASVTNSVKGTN
The description is as above.

The target in assay [3] is T2, recombinant murine BCMA Fc(kih). Briefly: SPR Biacore, bivalent avidity, BCMA-Fc on chip (Experiment 2). As to the method:
(§1) Assessment of binding of anti-BCMA antibodies to recombinant BCMA by surface plasmon resonance (SPR) as follow. All SPR experiments were performed on a Biacore T200 at 25° C. with HBS-EP as running buffer (0.01 M HEPES pH 7.4, 0.15 M NaCl, 3 mM EDTA, 0.005% Surfactant P20, Biacore, Freiburg/Germany). The avidity of the interaction between anti-BCMA antibodies and recombinant BCMA Fc(kih) (human, cynomolgus and murine) was determined (Tables 38-40). Biotinylated recombinant human, cynomolgus and murine BCMA Fc(kih) were directly coupled on a SA chip following instructions (Biacore, Freiburg/Germany). The immobilization level ranged from 80 to 120 RU. […] The dissociation was monitored for 180 seconds. Bulk refractive index differences were corrected for by subtracting the response obtained on the reference flow cell. Here, the anti-BCMA antibodies were flown over an empty surface previously activated and deactivated as described in the standard amine coupling kit. Apparent kinetic constants were derived using the Biacore T200 Evaluation Software (v 1.0, Biacore AB, Uppsala/Sweden), to fit rate equations for 1:1 Langmuir binding by numerical integration, despite the bivalency of the interaction for comparison purposes.

In assay [4] the target is T3, recombinant human BCMA Fc(kih). Described as above. Here is the method:
as §1

The target in assay [5] is T2, recombinant murine BCMA Fc(kih). In words: SPR Biacore, bivalent avidity, BCMA-Fc on chip (Experiment 3). Here is the method: as §1
For assay [6], the target named is T3, recombinant human BCMA Fc(kih). Described as above. Here is the method:
as §1

Assay [7] addresses T2, recombinant murine BCMA Fc(kih). In words: SPR Biacore, bivalent avidity, BCMA-Fc on chip. As to the method: as §1
Assay [8] addresses T3, recombinant human BCMA Fc(kih). In words: SPR Biacore, bivalent avidity, BCMA-Fc on chip. As to the method: as §1
For assay [9], the target named is T4, murine FolR1 monovalent Fc fusion, biotinylated (murine, UniProt P35846 25-232, biotin on C-terminal Avi-tag ; Biotin on the C-terminal Avi-tag of the Fc-knob chain (that part is not in the letters).).
T4 construct: as m1; also called muFolR1; murine FolR1-Fc; not shown: IgG hinge, Fc-knob and C-terminal Avi-tag fused to the ECD, and the co-expressed Fc-hole chain
In words: SPR ProteOn, Fab analyte, antigen on chip. As to the method: Immobilization of antigens (ligand): Recombinant antigens were diluted with PBST (10 mM phosphate, 150 mM sodium chloride pH 7.4, 0.005% Tween 20) to 10 μg/ml, then injected at 30 μl/minute in vertical orientation. Injection of analytes: For ‘one-shot kinetics’ measurements, injection direction was changed to horizontal orientation, two-fold dilution series of purified Fab (varying concentration ranges) were injected simultaneously along separate channels 1-5, with association times of 150 or 200 s, and dissociation times of 200 or 600 s, respectively. Buffer (PBST) was injected along the sixth channel to provide an “in-line” blank for referencing. Association rate constants (kₒₙ) and dissociation rate constants (koff) were calculated using a simple one-to-one Langmuir binding model in ProteOn Manager v3.1 software by simultaneously fitting the association and dissociation sensorgrams. The equilibrium dissociation constant (KD) was calculated as the ratio koff/kₒₙ.

Assay [10] addresses T5, human BCMA on myeloma cells (H929, U266) (human, UniProt Q02223 1-184).
T5 construct: whole, on cells
T5 sequence (looked up): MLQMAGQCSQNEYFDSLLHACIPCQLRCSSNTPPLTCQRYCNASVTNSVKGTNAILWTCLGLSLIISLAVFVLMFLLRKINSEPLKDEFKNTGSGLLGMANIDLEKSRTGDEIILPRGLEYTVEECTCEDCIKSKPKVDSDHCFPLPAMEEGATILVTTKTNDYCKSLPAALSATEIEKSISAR
Briefly: flow cytometry, H929 cells. As to the method: (§2) Briefly, cultured cells are harvested, counted and cell viability was evaluated using ViCell. Viable cells are then adjusted to 2×10⁶ cells per ml in BSA-containing FACS Stain Buffer (BD Biosciences). 100 μl of this cell suspension were further aliquoted per well into a round-bottom 96-well plate and incubated with 30 μl of the BCMA-TCB CLC antibodies or corresponding TCB control for 30 min at 4° c. All BCMA-TCB CLC antibodies (and TCB controls) were titrated and analyzed in final concentration range between 0.12-500 nM. […] Cells were then washed twice with Stain Buffer (BD Biosciences), fixed using 100 ul BD Fixation buffer per well (#BD Biosciences, 554655) at 4° C. for 20 min, resuspended in 120 μl FACS buffer and analyzed using BD FACS CantoII.
(In general: A flow cytometer gives signals particle by particle.)

In assay [11] the target is T5, human BCMA on myeloma cells (H929, U266). Briefly: cell-based or functional assay.
Assay [12] has the same target. Briefly: cell-based or functional assay. This is another data set of the same source.
Assay [13] has the same target. In words: flow cytometry on BCMA-positive H929 cells, PE anti-human Fc secondary antibody, median fluorescence intensity. Here is the method: as §2
The target in assay [14] is T6, human FolR1 on cells (HeLa, SKOV3, HT-29, transfected HEK) (human, UniProt P15328 25-234).
T6 construct: whole, on cells
In words: flow cytometry, tumor cell panel.

T4 sequence (P35846 25-232 limits assumed): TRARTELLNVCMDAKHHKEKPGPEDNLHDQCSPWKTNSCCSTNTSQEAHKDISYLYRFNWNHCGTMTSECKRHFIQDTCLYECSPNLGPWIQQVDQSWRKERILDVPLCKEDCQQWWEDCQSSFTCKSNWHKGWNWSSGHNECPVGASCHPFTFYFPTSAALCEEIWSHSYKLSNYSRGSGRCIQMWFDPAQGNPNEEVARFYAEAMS
T6 sequence (P15328 25-234): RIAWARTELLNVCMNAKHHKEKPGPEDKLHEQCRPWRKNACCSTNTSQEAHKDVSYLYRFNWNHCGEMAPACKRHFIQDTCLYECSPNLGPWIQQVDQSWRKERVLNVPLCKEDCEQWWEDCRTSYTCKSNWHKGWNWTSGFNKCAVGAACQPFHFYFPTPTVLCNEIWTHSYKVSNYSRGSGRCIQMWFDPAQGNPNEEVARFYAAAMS

B1: pSCHLI372 anti-BCMA IgG (antibody, V domains shown)
VH: EVQLVESGGGLVKPGGSLRLSCAASGFTFSNSGMIWVRQAPGKGLEWVGHIRSKTDGGTTDYAAPVKGRFTISRDDSKNTLYLQMNSLKTEDTAVYYCTTGGSGSFDYWGQGTLVTVSS
VL: QAVVTQEPSLTVSPGGTVTLTCGSSTGAVTTSNYANWVQEKPGQAFRGLIGGTNKRAPGTPARFSGSLLGGKAALTLSGAQPEDEAEYYCALWYSNLWVFGGGTKLTVL
notes: also called pSCHLI372 IgG; anti-BCMA IgG pSCHLI372
On to B1, for which, in the assay with Fc fused huTACI-R, the binding result is reported as “no binding”. Moreover, the Kd amounted to 1310 nM in [1]; 114 nM in [2]; 42.7 nM in assay [3]; 8.5 nM in assay [4]; 25.7 nM in assay [5]; 3.6 nM in assay [6].

B2: pSCHLI333 anti-BCMA IgG (antibody, V domains shown)
VH: QVQLVQSGAEVKKPGASVKVSCKASGYMFSSFGMSWVRQAPGQGLEWMGWIYPVGQGTWYAQKFQGRVTMTRDTSTSTVYMELSSLRSEDTAVYYCARVSYPPSHFDYWGQGTLVTVSS
VL: B1 VL
Regarding B2, the Kd in [7] is 19.6 nM; in assay [8], 2.5 nM.

B3: 14E4 Fab (Fab, V domains shown)
VH: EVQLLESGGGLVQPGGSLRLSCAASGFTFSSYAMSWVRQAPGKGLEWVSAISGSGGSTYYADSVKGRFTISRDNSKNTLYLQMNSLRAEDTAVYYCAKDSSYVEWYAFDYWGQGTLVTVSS
VL: EIVLTQSPGTLSLSPGERATLSCRASQSVSSSYLAWYQQKPGQAPRLLIYGASSRATGIPDRFSGSGSGTDSTLTISRLEPEDFAVYYCQQPTSSPITFGQGTKVEIK
notes: as m51
In turn, B3 gave a Kd in [9] of 6.09 nM.

B4: pSCHLI372-TCB CLC (bispecific antibody)
heavy 1: not shown
heavy 2: EVQLVESGGGLVKPGGSLRLSCAASGFTFSNSGMIWVRQAPGKGLEWVGHIRSKTDGGTTDYAAPVKGRFTISRDDSKNTLYLQMNSLKTEDTAVYYCTTGGSGSFDYWGQGTLVTVSSASTKGPSVFPLAPSSKSTSGGTAALGCLVKDYFPEPVTVSWNSGALTSGVHTFPAVLQSSGLYSLSSVVTVPSSSLGTQTYICNVNHKPSNTKVDKKVEPKSCDKTHTCPPCPAPEAAGGPSVFLFPPKPKDTLMISRTPEVTCVVVDVSHEDPEVKFNWYVDGVEVHNAKTKPREEQYNSTYRVVSVLTVLHQDWLNGKEYKCKVSNKALGAPIEKTISKAKGQPREPQVCTLPPSRDELTKNQVSLSCAVKGFYPSDIAVEWESNGQPENNYKTTPPVLDSDGSFFLVSKLTVDKSRWQQGNVFSCSVMHEALHNHYTQKSLSLSPGK
light: QAVVTQEPSLTVSPGGTVTLTCGSSTGAVTTSNYANWVQEKPGQAFRGLIGGTNKRAPGTPARFSGSLLGGKAALTLSGAQPEDEAEYYCALWYSNLWVFGGGTKLTVLGQPKAAPSVTLFPPSSEELQANKATLVCLISDFYPGAVTVAWKADSSPVKAGVETTTPSKQSNNKYAASSYLSLTPEQWKSHRSYSCQVTHEGSTVEKTVAPTECS
notes: also called pSCHLI372 BCMAxCD3 TCB
For B4, the Kd in [1] came out at 344 nM. In addition, the Kd in assay [2] worked out at 63 nM. The EC50 in assay [10] is 345 nM and 65.9 µg/mL. In assay [11], the “EC50 redirected T-cell killing, H929 (Experiment 1)” value is 450 pM and 0.08 µg/ml; the “EC50 redirected T-cell killing, H929 (Experiment 2)” value was 900 pM and 0.17 µg/ml. For the same molecule, the “EC50 redirected T-cell killing, U266” value in assay [12] is 5700 pM and 1.1 µg/ml.

B5: DP47 GS TCB (2+1 Crossfab-IgG P329G LALA inverted, untargeted TCB) (bispecific antibody)
heavy 1: not shown
heavy 2: not shown
light 1: not shown
light 2: QAVVTQEPSLTVSPGGTVTLTCGSSTGAVTTSNYANWVQEKPGQAFRGLIGGTNKRAPGTPARFSGSLLGGKAALTLSGAQPEDEAEYYCALWYSNLWVFGGGTKLTVLSSASTKGPSVFPLAPSSKSTSGGTAALGCLVKDYFPEPVTVSWNSGALTSGVHTFPAVLQSSGLYSLSSVVTVPSSSLGTQTYICNVNHKPSNTKVDKKVEPKSC
notes: negative control; also called DP47 TCB; DP47-TCB
For B5, the binding result in assay [13] is “no binding (tested: 500 nM)”; in [14], “no binding”.

One may read the EC50 as the concentration that produces a half-maximal response. The low end stands for greater potency, the high end for weaker potency.
